Reference: FireProtDB

B1: L7I|A194E|Q222G|K234H|E237D, Q88HV5 (parent)
chain: MPFQQGLLATPVPAHARHLFFTLQSPEALPAALDALLPQVDGKQLLLGVGAPLAKALGREIPGLRPFPLLDAAVENPSTQHALWLWLRGDERGDLLLRTQALEQALAPALSLADSVDGFLHRGGHDLTGYEDGTENPTDEEAVQAAIAADGSSFAAFQLWKHDLQYFKSLPQADQDNIIGRRLSDNEELDDAPASAHVKRTAQESFEPEAFMVRRSVSWADQRGAGLAFVALGKSFEAFEVQLRRMSGLEDGIIDGLYRFSRPLTGGYYWCPPMSETGVDLSPLLRA

Variants of: B1
Details: Pseudomonas putida (strain ATCC 47054 / DSM 6125 / CFBP 8728 / NCIMB 11950 / KT2440); pH 7.6; Fluorescence spectroscopy; whole UniProt chain shown

Which Tm does the source give for MPFQQGILATPVPAHARHLFFTLQSPEALPAALDALLPQVDGKQLLLGVGAPLAKALGREIPGLRPFPLLDAAVENPSTQHALWLWLRGDERGDLLLRTQALEQALAPALSLADSVDGFLHRGGHDLTGYEDGTENPTDEEAVQAAIAADGSSFAAFQLWKHDLQYFKSLPQADQDNIIGRRLSDNEELDDAPESAHVKRTAQESFEPEAFMVRRSVSWADGRGAGLAFVALGHSFDAFEVQLRRMSGLEDGIIDGLYRFSRPLTGGYYWCPPMSETGVDLSPLLRA [L7I A194E Q222G K234H E237D] here?
The Tm was 65 °C.

For MPFQQGILATPVPAHAVHLFFTLQSPEDLPAALDRLLPQVDGKQLLLGIGAPLAKALGREIPGLRPFPLLDAAVENPSTQHALWLWLRGDERGDLLLRTQALEQALAPALSLADSVDGFLHRGGHDLTGYEDGTENPTDEEAVQAAIADDGSSFAAFQLWKHDLQYFKSLPQAEQDNIIGRRLSDNEELDDAPASAHVKRTAQESFEPEAFMVRRSVSWADGRGAGLAFVALGHSFDAFEVQLRRMSGLEDGIIDGLYRFSRPLTGGYYWCPPMSETGVDLSPLLRA [L7I R17V A28D A35R V49I A149D D174E Q222G K234H E237D], which Tm is on record?
Its Tm is 69 °C.

Which Tm does the source give for MPFQQGILATPVPAHARHLFFTLQSPEALPAALDALLPQVDGKQLLLGVGAPLAKALGREIPGLRPFPLLDAAVENPSTQHALWLWLRGDDRGDLLLRTQALEQALAPAFVLADSVDGFLHRGGHDLTGYEDGTENPTDEEAVQAAIAADGSSFAAFQLWKHDLDYFKSLPQAEQDNIIGRRLSDNEELDDAPESAHVKRTAQESFEPEAFMVRRSMSWADGRGAGLAFVALGHSFDAFEVQLRRMSGLEDGIIDGLYRFSRPLTGGYYWCPPMSETGVDLSPLLRA [L7I E91D L110F S111V Q165D D174E A194E V217M Q222G K234H E237D] here?
The Tm was 71 °C.

For MPFQQGLLLTPVPAHARHLFFTLQFPEALPAALDALLPQVDGKQLLLGVGAPLVKALGREIPGLRPFPLLDAAVENPSTQHALWLWLRGDDRGELLLRTQALEQALAPAFSLADSVDAFRHRGGRDLTGYEDGTENPTGEEAVQAAIALDGSSFAAFQLWKHDLQYFKALPQADQDNIIGRRLSDNEELDDAPASAHVKRTAQESFEPEAFMVRRSMPWADGRGAGLAFVAFGKSFDAFEVQLRRMSGLEDGIIDGLYRFSRPLTGGYYWCPPMSETGLDLSPLLRA [A9L S25F A54V E91D D94E L110F G118A L120R H125R D139G A149L S169A V217M S218P Q222G L232F E237D V279L], which Tm is on record?
Its Tm is 70 °C.

Which Tm does the source give for MPFQQGLLLTPVPAHARHLFFTLQFPEALPAALDALLPQVDGKQLLLGVGAPLVKALGREIPGLRPFPLLDAAVENPSTQHALWLWLRGDDRGELLLRTRALEQALAPAFSLADSVDAFRHRGGRDLTGYEDGTENPTGEEAVQAAIALDGSSFAAFQLWKHDLQYFKSLPQADQDNIIGRRLSDNEELDDAPASAHVKRTAQESFEPEAFMVRRSMPWADGRGAGLAFVAFGKSFDAFEVQLRRMSGLEDGIIDGLYRFSRPLTGGYYWCPPMSETGVDLSPLLRA [A9L S25F A54V E91D D94E Q100R L110F G118A L120R H125R D139G A149L V217M S218P Q222G L232F E237D] here?
The Tm was 83 °C.

Which Tm does the source give for MPFQQGILATPVPAHAVHLFFTLQSPEALPAALDALLPQVDGKQLLLGIGAPLAKALGREIPGLRPFPLLDAAVENPSTQHALWLWLRGDERGDLLLRTQALEQALAPALSLADSVDGFLHRGGHDLTGYEDGTENPTDEEAVQAAIAADGSSFAAFQLWKHDLDYFKSLPQAEQDNIIGRRLSDNEELDDAPASAHVKRTAQESFEPEAFMVRRSMSWADGRGAGLAFVALGKSFDAFEVQLRRMSGLEDGIIDGLYRFSRPLTGGYYWCPPMSETGVDLSALLRA [L7I R17V V49I Q165D D174E V217M Q222G E237D P283A] here?
The Tm was 68 °C.

Which Tm does the source give for MPFQQGILATPVPAHAVHLFFTLQSPEALPAALDRLLPQVDGKQLLLGVGAPLAKALGREIPGLRPFPLLDAAVENPSTQHALWLWLRGDERGDLLLRTQALEQALAPALSLADSVDGFLHRGGHDLTGYEDGTENPTDEEAVQAAIAADGSSFAAFQLWKHDLDYFKSLPQADQDNIIGRRLSDNEELDDAPASAHVKRTAQESFEPEAFMVRRSVSWADQRGAGLAFVALGKSFDAFEVQLRRMSGLEDGIIDGLYRFSRPLTGGYYWCPPMSETGVDLSPLLRA [L7I R17V A35R Q165D E237D] here?
Its Tm is 75 °C.

For MPFQQGLLLTPVPAHARHLFFTLQFPEALPAALDALLPQVDGKQLLLGVGAPLVKALGREIPGLRPFPLLDAAVENPSTQHALWLWLRGDERGELLLRTRALEQALAPAFSLADSVDGFLHRGGHDLTGYEDGTENPTDEEAVQAAIALDGSSFVAFQLWKHDLQYFKSLPQADQDNIIGRRLSDNEELDDAPASAHVKRTAQESFEPEAFMVRRSMPWADGRGAGLAFVALGKSFEAFEVQLRRMSGLEDGIIDGLYRFSRPLTGGYYWCPPMSETGVDLSPLLRA [A9L S25F A54V D94E Q100R L110F A149L A155V V217M S218P Q222G], which Tm is on record?
Its Tm is 66 °C.

Which Tm does the source give for MPFQQGLLLTPVPAHARHLFFTLQFPEALPAALDALLPQVDGKQLLLGVGAPLVKALGREIPGLRPFPLLDAAVENPSTQHALWLWLRGDERGDLLLRTQALEQALAPALSLADSVDGFLHRGGHDLTGYEDGTENPTDEEAVQAAIALDGSSFAAFQLWKHDLQYFKSLPQADQDNIIGRRLSDNEELDDAPASAHVKRTAQESFEPEAFMVRRSMPWADGRGAGLAFVAFGKSFDAFEVQLRRMSGLEDGIIDGLYRFSRPLTGGYYWCPPMSETGVDLSPLLRA [A9L S25F A54V A149L V217M S218P Q222G L232F E237D] here?
The Tm was 66 °C.

With MPFQQGLLLTPVPAHARHLFFTLQFPEALPAALDALLPQVDGKQLLLGVGAPLVKALGREIPGLRPFPLLDAAVENPSTQHALWLWLRGDDRGELLLRTRALEQALAPAFSLADSVDAFRHRGGRDLTGYEDGTENPTGEEAVQAAIALDGSSFVAFQLWKHDLQYFKALPQAEQDNIIGRRLSDNEELDDAPASAHVKRTAQESFEPEAFMVRRSMPWADGRGAGLAFVAFGKSFDAFEVQLRRMSGLEDGIIDGLYRFSRPLTGGYYWCPPMSETGLDLSPLLRA [A9L S25F A54V E91D D94E Q100R L110F G118A L120R H125R D139G A149L A155V S169A D174E V217M S218P Q222G L232F E237D V279L] as the variant, how does the Tm read?
The Tm was 74 °C.
